Consider 2 substances from patent publication US5948825A, “Microemulsion preparation containing a slightly absorbable substance” (Institute for Advanced Skin Research Inc., priority 1993, dated 1999).

The nature of series [1]: administration into the nasal cavity, closure technique. It counts as in vivo. Conditions: rats; relative to subcutaneous injection (integrated blood concentration over time) = 100%.
Source text: Rats were anesthetized and medisected in the neck to expose the windpipe and esophagus. Part of the windpipe was incised and a polyethylene tube was inserted into the windpipe to secure the airway, followed by ligation. The nostril and the opening in the incisive caval on the oral cavity side were closed with an adhesive. Part of the esophagus was incised for insertion of a nutrition catheter until its end reached into the nasal cavity. The part of the esophagus into which the nutrition catheter was inserted was ligated. […] Blood was sampled at specified time intervals and the change in the concentration of the drug in the blood was determined over time.
Availability: Relative value with the availability upon subcutaneous
Series [2] can be described thus: absorption by the rectum (through the mucous membrane). It counts as in vivo. To be noted: rats; relative to subcutaneous injection (integrated blood concentration over time) = 100%. The procedure:
Rats were starved from the day before experiment until there was little feces left in the abdomen. […] Immediately after the injection, the anus was bound with a rubber band to prevent the leakage of the microemulsion. Blood was sampled at specified time intervals and the concentration of the drug in the blood was determined.

Series [3] is described as follows: absorption by the alimentary tract (duodenum). It counts as in vivo, rats. To be noted: route not given; relative to subcutaneous injection = 100%. The method, then:
Rats were incised in the abdomen and a silicone rubber tube was passed through the alimentary tract from the stomach wall to the duodenum, followed by suturing of the stomach wall, peritoneum and skin through which the tube penetrated. […] As in (1), blood was sampled at specified time intervals and the concentration of the drug in the blood was determined.

On to “calcitonin: peptide drug of low absorbability through the mucous membrane”, for which the “Availability, nasal cavity” value in series [1] was determined as 50%. For the same substance, in series [2], the “Availability, rectum” value is given as 22-23%. With “erythropoietin: macromolecular peptide drug”, in series [3], the “availability values (macromolecular peptides such as erythropoietin)” value was 2-3%.
